Reference: the supplement of paper PMC9876800

Test system: peptide library, one residue held at a place counted from the S/T acceptor
Assay: relative phosphorylation of the sub-library (ratio to the mean residue at this position); higher = residue favoured
In short: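 In 384-well plates, purified recombinant kinases (human or orthologue constructs) were incubated for 90 min under kinase-specific conditions with 50 μM biotinylated degenerate peptide sub-libraries and 50 μM ATP spiked with γ-32P-ATP. Each sub-library fixed a single residue at one position around a central Ser/Thr. Relative sub-library phosphorylation, measured by phosphorimaging and densitometry of streptavidin membrane spots, is given as a ratio to the mean residue at that position.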

CILK1, construct: Full length, human, sequence (Q9UPZ9 whole entry, looked up): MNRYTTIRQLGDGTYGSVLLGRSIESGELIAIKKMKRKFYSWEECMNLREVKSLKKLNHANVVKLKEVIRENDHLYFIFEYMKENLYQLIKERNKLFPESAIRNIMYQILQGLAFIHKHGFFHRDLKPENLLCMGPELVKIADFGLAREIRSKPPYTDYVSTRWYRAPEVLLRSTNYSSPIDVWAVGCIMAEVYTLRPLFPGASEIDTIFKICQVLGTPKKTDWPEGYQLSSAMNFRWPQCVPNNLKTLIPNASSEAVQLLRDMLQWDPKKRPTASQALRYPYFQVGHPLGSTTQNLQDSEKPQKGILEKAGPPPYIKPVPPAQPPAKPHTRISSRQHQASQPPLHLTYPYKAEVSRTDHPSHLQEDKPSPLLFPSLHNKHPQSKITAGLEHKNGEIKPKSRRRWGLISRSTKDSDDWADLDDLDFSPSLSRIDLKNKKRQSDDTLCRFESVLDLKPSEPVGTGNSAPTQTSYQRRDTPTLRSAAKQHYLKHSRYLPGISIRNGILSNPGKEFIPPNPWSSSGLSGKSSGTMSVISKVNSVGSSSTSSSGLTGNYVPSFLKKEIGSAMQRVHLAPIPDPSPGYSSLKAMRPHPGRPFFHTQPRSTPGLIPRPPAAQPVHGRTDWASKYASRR
DAPK2, construct: Full length, human, sequence (Q9UIK4 whole entry, looked up): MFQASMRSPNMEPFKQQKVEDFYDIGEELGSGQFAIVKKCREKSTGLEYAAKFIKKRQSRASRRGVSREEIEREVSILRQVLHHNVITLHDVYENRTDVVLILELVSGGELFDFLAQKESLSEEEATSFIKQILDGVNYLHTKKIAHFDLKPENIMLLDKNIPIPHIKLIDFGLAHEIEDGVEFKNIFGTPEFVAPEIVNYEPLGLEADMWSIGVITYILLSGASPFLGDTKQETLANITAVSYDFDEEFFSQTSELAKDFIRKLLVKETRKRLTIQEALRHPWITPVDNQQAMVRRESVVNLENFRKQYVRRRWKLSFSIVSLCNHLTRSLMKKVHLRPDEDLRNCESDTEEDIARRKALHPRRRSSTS

CILK1, construct: Full length, human (from UniProt Q9UPZ9)
relative phosphorylation
Details | at +1 | at +2 | at +3 | at +4 | at -1 | at -2 | at -3 | at -4 | at -5
A fixed | 1.36 | 0.902 | 0.838 | 1.02 | 0.938 | 0.718 | 0.93 | 1.04 | 0.881
D fixed | 0.474 | 1.08 | 0.774 | 0.815 | 0.661 | 0.491 | 0.557 | 0.803 | 1.07
E fixed | 0.464 | 0.744 | 0.722 | 0.771 | 0.577 | 0.498 | 0.498 | 0.825 | 0.875
F fixed | 0.972 | 0.992 | 0.98 | 0.809 | 0.675 | 0.559 | 0.567 | 0.922 | 0.991
G fixed | 1.22 | 1.08 | 1.23 | 1.29 | 1.22 | 0.82 | 0.734 | 1.08 | 1.03
H fixed | 0.668 | 1.27 | 1.22 | 1.25 | 1.04 | 0.615 | 0.662 | 0.982 | 1.1
I fixed | 0.907 | 0.936 | 0.834 | 0.819 | 0.497 | 0.55 | 0.556 | 0.768 | 0.802
K fixed | 0.752 | 0.968 | 1.33 | 1.09 | 1.63 | 1.09 | 1.07 | 1.21 | 1.1
L fixed | 0.818 | 0.859 | 0.957 | 0.933 | 0.755 | 0.616 | 0.556 | 0.835 | 0.953
M fixed | 0.929 | 0.967 | 0.877 | 0.926 | 1.13 | 0.652 | 0.709 | 1.03 | 0.929
N fixed | 0.601 | 1.13 | 0.883 | 1.09 | 1.15 | 0.619 | 0.651 | 0.92 | 0.917
P fixed | 3.85 | 0.907 | 1.15 | 1.22 | 1.36 | 4.79 | 1.09 | 1.19 | 1.04
Q fixed | 0.751 | 1.07 | 1.07 | 1.11 | 1.46 | 0.938 | 0.794 | 1.03 | 1
R fixed | 0.79 | 1.02 | 1.25 | 1.04 | 1.53 | 2.19 | 5.98 | 1.55 | 1.32
V fixed | 0.877 | 0.781 | 0.799 | 0.739 | 0.694 | 0.555 | 0.515 | 0.791 | 0.776
W fixed | 0.87 | 1.12 | 1.02 | 1.03 | 0.835 | 0.69 | 0.609 | 1.14 | 1.15
Y fixed | 0.702 | 1.17 | 1.08 | 1.05 | 0.845 | 0.604 | 0.522 | 0.89 | 1.06
pThr fixed | 0.722 | 0.66 | 0.828 | 1.06 | 0.459 | 0.561 | 0.625 | 0.828 | 0.807
pTyr fixed | 0.711 | 0.992 | 0.796 | 0.93 | 0.513 | 0.514 | 0.564 | 0.68 | 0.841

DAPK2, construct: Full length, human (from UniProt Q9UIK4)
relative phosphorylation
Details | at +1 | at +2 | at +3 | at +4 | at -1 | at -2 | at -3 | at -4 | at -5
A fixed | 0.947 | 0.886 | 0.931 | 0.893 | 0.907 | 1.2 | 0.902 | 1.03 | 1.03
D fixed | 1.24 | 0.825 | 0.801 | 0.816 | 0.878 | 0.624 | 0.608 | 0.797 | 0.77
E fixed | 1.3 | 0.846 | 0.813 | 0.758 | 0.71 | 0.591 | 0.558 | 0.795 | 0.703
F fixed | 0.985 | 1.1 | 0.998 | 1.22 | 0.902 | 0.704 | 0.778 | 1.03 | 1.02
G fixed | 1.02 | 0.895 | 1.01 | 0.933 | 0.983 | 0.869 | 0.846 | 1.02 | 1.08
H fixed | 0.861 | 0.962 | 0.951 | 1.22 | 0.992 | 1.08 | 0.869 | 0.967 | 0.926
I fixed | 0.909 | 1.02 | 1.6 | 1.02 | 0.854 | 0.645 | 0.697 | 0.888 | 0.955
K fixed | 0.739 | 0.891 | 0.842 | 0.837 | 1.22 | 1.23 | 1.59 | 1.12 | 1.09
L fixed | 0.863 | 1.34 | 1.27 | 0.995 | 1.2 | 0.725 | 0.754 | 0.949 | 1.06
M fixed | 1.04 | 1.34 | 0.968 | 0.882 | 1.03 | 0.739 | 0.758 | 0.964 | 0.99
N fixed | 1.25 | 0.913 | 0.852 | 0.912 | 1.25 | 0.855 | 0.666 | 0.97 | 0.839
P fixed | 0.736 | 1.04 | 0.983 | 1.09 | 1.11 | 0.775 | 0.881 | 1.04 | 1.08
Q fixed | 1.77 | 0.983 | 0.878 | 0.927 | 0.995 | 0.838 | 0.716 | 0.915 | 0.869
R fixed | 0.838 | 1.05 | 1 | 0.958 | 1.21 | 3.71 | 3.95 | 1.45 | 1.47
V fixed | 0.91 | 0.948 | 1.15 | 0.973 | 0.916 | 0.688 | 0.674 | 0.894 | 0.92
W fixed | 0.79 | 0.943 | 1 | 1.39 | 0.856 | 0.961 | 0.898 | 1.06 | 0.98
Y fixed | 0.797 | 1.02 | 0.948 | 1.18 | 0.994 | 0.765 | 0.861 | 1.11 | 1.23
pThr fixed | 1.74 | 1.06 | 0.929 | 0.994 | 0.74 | 0.649 | 0.685 | 0.818 | 0.831
pTyr fixed | 1.15 | 1.02 | 1.16 | 1.04 | 0.969 | 0.696 | 0.682 | 0.811 | 0.827

DYRK1A, construct: aa147-185, human (from UniProt Q13627)
relative phosphorylation
Details | at +1 | at +2 | at +3 | at +4 | at -1 | at -2 | at -3 | at -4 | at -5
A fixed | 0.555 | 0.855 | 0.76 | 0.819 | 1.27 | 1.63 | 0.864 | 0.989 | 0.962
D fixed | 0.289 | 0.642 | 0.666 | 0.794 | 0.556 | 0.35 | 0.461 | 0.768 | 0.695
E fixed | 0.286 | 0.461 | 0.598 | 0.768 | 0.59 | 0.348 | 0.372 | 0.879 | 0.674
F fixed | 0.557 | 1.42 | 1.41 | 1.97 | 0.736 | 0.452 | 0.417 | 0.814 | 1.06
G fixed | 0.692 | 1.03 | 1 | 1.09 | 0.983 | 0.826 | 1.08 | 1.06 | 1.1
H fixed | 0.506 | 1.23 | 1.37 | 1.07 | 1.13 | 0.589 | 0.674 | 1.01 | 1.2
I fixed | 0.488 | 1.4 | 0.957 | 1.01 | 0.726 | 0.605 | 0.387 | 0.928 | 1
K fixed | 0.631 | 0.679 | 0.626 | 0.801 | 1.31 | 0.712 | 0.739 | 1.1 | 1.05
L fixed | 0.463 | 1.6 | 1.36 | 1.04 | 0.887 | 0.785 | 0.467 | 0.936 | 0.92
M fixed | 0.554 | 1.29 | 1.24 | 1.23 | 1.21 | 0.659 | 0.456 | 0.964 | 0.918
N fixed | 0.471 | 0.79 | 0.789 | 0.893 | 0.849 | 0.641 | 0.5 | 0.871 | 0.876
P fixed | 8.74 | 0.803 | 1.94 | 0.87 | 1.87 | 4.42 | 0.564 | 1.04 | 1.16
Q fixed | 0.475 | 0.721 | 0.882 | 0.861 | 0.998 | 0.608 | 0.618 | 0.891 | 0.95
R fixed | 0.783 | 0.811 | 0.725 | 0.714 | 1.46 | 2.63 | 8.09 | 2.1 | 1.73
V fixed | 0.537 | 1.27 | 0.761 | 0.86 | 0.907 | 0.805 | 0.366 | 0.726 | 0.767
W fixed | 0.54 | 0.941 | 1.03 | 1.23 | 0.708 | 0.486 | 0.497 | 0.934 | 0.814
Y fixed | 0.432 | 1.06 | 0.877 | 0.976 | 0.815 | 0.454 | 0.444 | 1 | 1.13
pThr fixed | 0.379 | 0.562 | 0.556 | 0.773 | 0.374 | 0.487 | 0.391 | 0.789 | 0.805
pTyr fixed | 0.441 | 0.547 | 0.598 | 0.87 | 0.612 | 0.419 | 0.45 | 0.782 | 0.791

DYRK4, construct: Full length, human (from UniProt Q9NR20)
relative phosphorylation
Details | at +1 | at +2 | at +3 | at +4 | at -1 | at -2 | at -3 | at -4 | at -5
A fixed | 0.514 | 0.92 | 0.735 | 0.738 | 1.25 | 2.4 | 1.05 | 1.07 | 0.995
D fixed | 0.171 | 2.1 | 1.07 | 1.49 | 0.773 | 0.283 | 0.554 | 0.801 | 0.827
E fixed | 0.189 | 1.81 | 0.985 | 1.28 | 0.959 | 0.27 | 0.54 | 0.85 | 0.807
F fixed | 0.166 | 1.03 | 0.935 | 1.27 | 0.671 | 0.366 | 0.464 | 0.725 | 1.09
G fixed | 0.614 | 0.629 | 1.3 | 1.06 | 1.28 | 0.977 | 1.29 | 1.13 | 1.1
H fixed | 0.173 | 1.09 | 0.909 | 1.03 | 0.925 | 0.493 | 0.88 | 0.961 | 1.11
I fixed | 0.268 | 1.35 | 0.696 | 1.09 | 0.73 | 0.781 | 0.491 | 0.939 | 0.9
K fixed | 0.228 | 0.317 | 0.428 | 0.543 | 0.87 | 0.421 | 0.796 | 0.857 | 0.922
L fixed | 0.202 | 1.18 | 1.42 | 0.967 | 0.832 | 0.871 | 0.624 | 0.893 | 0.825
M fixed | 0.21 | 1.23 | 1.12 | 1.19 | 1.16 | 0.844 | 0.647 | 0.888 | 0.78
N fixed | 0.2 | 0.738 | 0.825 | 0.866 | 0.847 | 0.907 | 0.728 | 0.719 | 0.882
P fixed | 12 | 0.629 | 3.2 | 0.896 | 1.71 | 2.89 | 1.05 | 1.3 | 1.02
Q fixed | 0.266 | 0.783 | 0.882 | 0.958 | 0.962 | 0.629 | 0.805 | 0.916 | 1.04
R fixed | 0.93 | 0.367 | 0.554 | 0.672 | 1.41 | 3.18 | 5.51 | 2.49 | 1.98
V fixed | 0.578 | 1.07 | 0.637 | 0.87 | 0.963 | 1.02 | 0.478 | 0.731 | 0.792
W fixed | 0.163 | 0.909 | 0.726 | 1.16 | 0.595 | 0.321 | 0.533 | 0.875 | 0.656
Y fixed | 0.161 | 0.843 | 0.569 | 0.919 | 1.06 | 0.354 | 0.556 | 0.863 | 1.28
pThr fixed | 0.375 | 4.81 | 0.992 | 1.93 | 0.506 | 0.647 | 0.592 | 0.868 | 0.978
pTyr fixed | 0.365 | 3.13 | 1.37 | 2.35 | 1.04 | 0.383 | 0.698 | 0.896 | 1.44
